What was measured:
ARD of TRPV1 = biological target: T1, ARD of TRPV1 (Rattus norvegicus (Rat), UniProt O35433 101-364); experiment: SPR steady state, ARD immobilised on CM5 chip, design as analyte, 25 C
T1 construct: Purified from E. coli and immobilised on a CM5 chip by amine coupling; also called TRPV1 ARD; ankyrin repeat-like domain
Description: The purified ARD was immobilized on the CM5 SPR sensor chip by an amine-coupling procedure. SPR experiments were conducted on the Biacore T3000 instrument (GE healthcare). The designed proteins were perfused as analytes. Steady-state SPR responses were measured and used to determine the KD values. In all experiments, the analysis was performed at 25° C., with an association time of 120 see at a flow rate of 20 μL/min.

TRPV1 = experiment: cell-based or functional assay

T1 sequence (O35433 other isoform, or with tags, fused parts or gaps limits assumed): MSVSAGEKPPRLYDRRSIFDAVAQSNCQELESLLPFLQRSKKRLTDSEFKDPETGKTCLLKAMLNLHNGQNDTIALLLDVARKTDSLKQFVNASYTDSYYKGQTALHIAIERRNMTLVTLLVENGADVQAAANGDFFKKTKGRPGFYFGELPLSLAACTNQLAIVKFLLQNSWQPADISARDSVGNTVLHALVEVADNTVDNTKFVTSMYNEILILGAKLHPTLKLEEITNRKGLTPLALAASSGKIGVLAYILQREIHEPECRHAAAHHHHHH

B1: De1 (designed binder)
chain: NGYSSEDKLRIAKRHLLPKQIERNALKKGELFVSEFAILGIILFYTDEAGVRGLEREISKLCRKAVKQLLLDKSTTSSHASGFHLHDYLGVMR
notes: For SPR: expressed from pET-32a in E. coli BL21(DE3), purified on a Ni column and by HPLC; also called Del; designed protein De1
Q: Which Kd (ARD of TRPV1) does the source give for B1 here?
A: 26.5 nM

Q: What about the “EC50 of capsaicin activation of TRPV1 co-expressed with De1 (whole-cell patch clamp)” value (TRPV1) of the same binder?
A: 50.9 nM

From patent US20240166695A1 (University of California, published 2024)
